Reference: publication PMC5626764

Target: SHG-labeled wildtype NiV G ectodomain (Nipah virus) (UniProt Q9IH62)
Assay: second harmonic generation (SHG)

**Q.** “ephrinB2-229 (10881-HCCH, SinoBiological Inc.) (domain or fragment)” was tested. Which ΔSHG did it give?
**A.** -15.9%
